How the values were obtained:
[1] = target: tubulin (microtubules) (human (endogenous in HeLa)) (UniProt P68363); test: FRAP; live HeLa cells expressing the CST, 37°C, 5% CO2; EYFP bleached in a circular ROI of 2 μm radius in the cytoplasm; recovery curves fitted by a two-phase exponential association function; the phase with lower mobility is named MTs-bound fraction
[2] = target: tubulin (microtubules) (human (endogenous in HeLa)) (UniProt P68363)

Chain of UniProt P68363 (P68363 whole entry, chain 1 of 2): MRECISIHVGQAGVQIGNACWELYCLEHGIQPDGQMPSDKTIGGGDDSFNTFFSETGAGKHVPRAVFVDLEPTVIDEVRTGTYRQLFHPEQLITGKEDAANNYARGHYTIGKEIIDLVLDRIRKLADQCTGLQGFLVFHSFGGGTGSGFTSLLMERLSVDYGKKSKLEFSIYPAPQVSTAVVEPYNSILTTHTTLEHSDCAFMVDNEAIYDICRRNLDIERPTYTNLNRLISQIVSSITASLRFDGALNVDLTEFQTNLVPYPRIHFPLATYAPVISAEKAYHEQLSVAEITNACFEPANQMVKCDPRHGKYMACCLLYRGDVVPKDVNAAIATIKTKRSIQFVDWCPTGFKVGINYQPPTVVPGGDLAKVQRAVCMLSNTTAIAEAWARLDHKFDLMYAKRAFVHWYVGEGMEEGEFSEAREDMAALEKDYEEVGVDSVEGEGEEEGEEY
Chain of UniProt P68363 (P07437 whole entry, chain 2 of 2, further chain): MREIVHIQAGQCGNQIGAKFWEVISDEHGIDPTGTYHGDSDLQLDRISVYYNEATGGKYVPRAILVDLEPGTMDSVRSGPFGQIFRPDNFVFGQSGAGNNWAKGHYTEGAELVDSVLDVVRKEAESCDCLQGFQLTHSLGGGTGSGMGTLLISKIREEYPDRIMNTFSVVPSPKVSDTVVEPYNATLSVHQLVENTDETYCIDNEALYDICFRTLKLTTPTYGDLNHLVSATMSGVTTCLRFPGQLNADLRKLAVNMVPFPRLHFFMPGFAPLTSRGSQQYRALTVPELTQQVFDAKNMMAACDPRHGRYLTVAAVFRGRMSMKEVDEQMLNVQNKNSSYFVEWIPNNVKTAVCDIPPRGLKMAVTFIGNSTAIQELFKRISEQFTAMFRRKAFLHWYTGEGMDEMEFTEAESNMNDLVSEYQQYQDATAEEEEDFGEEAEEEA

MTs-bound fraction [1] [%]	FRAP mobile fraction (Mob calc) in live HeLa cells [2] [%]	Substance
61	–	Conformational Sensitive Tau, wild type (CST^WT) (from UniProt P10636-8 1-441) (natural protein)
–	79	Conformational Sensitive Tau with the Q336H mutation (CST^Q336H) (from UniProt P10636-8 1-441) (natural protein)
